Assay [1] concerns the target T1, FGFR1 D2 point mutant E50A (human, UniProt P11362 22-254).
T1 chain: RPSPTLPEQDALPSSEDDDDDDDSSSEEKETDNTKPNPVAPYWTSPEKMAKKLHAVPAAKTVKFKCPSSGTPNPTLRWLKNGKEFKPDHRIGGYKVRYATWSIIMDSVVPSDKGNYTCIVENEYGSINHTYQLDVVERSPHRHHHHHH
The assay can be described thus: SPR as in Example 1.8. The procedure, abridged:
(§1)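 Anti-FGFR1 mAb captured via immobilised anti-human Fc to ~200 RU; 2-fold dilutions of His-tagged FGFR1 (wild-type or HEK-expressed point mutants, Ala→Gly for native Ala) injected at 25° C in HBS-EP+. kon/koff from 1:1 Langmuir fit; KD = koff/kon.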

Assay [2] concerns the target T2, FGFR1 D2 point mutant P57A (human, UniProt P11362 22-254).
T2 chain: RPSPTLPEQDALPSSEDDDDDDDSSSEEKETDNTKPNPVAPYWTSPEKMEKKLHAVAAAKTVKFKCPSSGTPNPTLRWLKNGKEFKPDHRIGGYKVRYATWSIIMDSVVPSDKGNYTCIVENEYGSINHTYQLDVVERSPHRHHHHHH
Kind of assay: SPR as in Example 1.8. Put shortly:
as §1

Assay [3] has as its target T3, FGFR1 D2 point mutant K65A (human, UniProt P11362 22-254).
T3 chain: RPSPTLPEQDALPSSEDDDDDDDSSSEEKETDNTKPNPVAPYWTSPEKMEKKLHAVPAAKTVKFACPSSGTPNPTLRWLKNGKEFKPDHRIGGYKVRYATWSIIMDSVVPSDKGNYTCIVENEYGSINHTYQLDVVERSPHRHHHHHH
Kind of assay: SPR as in Example 1.8. Put shortly:
as §1

Assay [4] deals with T4, FGFR1 D2 point mutant I91A (human, UniProt P11362 22-254).
T4 chain: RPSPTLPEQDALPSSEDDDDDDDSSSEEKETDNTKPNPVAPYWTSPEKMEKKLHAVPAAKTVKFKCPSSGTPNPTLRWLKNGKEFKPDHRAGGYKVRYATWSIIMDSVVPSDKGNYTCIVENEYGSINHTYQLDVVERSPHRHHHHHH
Kind of assay: SPR as in Example 1.8. The procedure, abridged: as §1

Assay [5] has as its target T5, FGFR1 D2 point mutant D106A (human, UniProt P11362 22-254).
T5 chain: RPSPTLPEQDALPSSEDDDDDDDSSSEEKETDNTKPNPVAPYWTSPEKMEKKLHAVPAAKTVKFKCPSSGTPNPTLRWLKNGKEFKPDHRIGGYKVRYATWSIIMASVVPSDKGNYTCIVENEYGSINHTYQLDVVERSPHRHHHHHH
The assay can be described thus: SPR as in Example 1.8. Put shortly: as §1

In a further assay the target is T6, Human FGFR1 D2-His6 (human, UniProt P11362 22-254).
T6 construct: also called D2 domain; F3FR1c-D2
T6 sequence: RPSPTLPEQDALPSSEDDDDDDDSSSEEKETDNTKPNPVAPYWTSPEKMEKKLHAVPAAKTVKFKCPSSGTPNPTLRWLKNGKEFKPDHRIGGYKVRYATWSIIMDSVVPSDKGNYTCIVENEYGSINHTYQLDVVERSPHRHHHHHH
Kind of assay: ELISA, antibody titrated on FGFR1 Ig-D2, O.D. 450 nm [panel FGFR1 Ig-D2]. On the technique in general: In an ELISA, binding on a coated surface is turned into a signal by an enzyme label.

Assay [6] deals with T7, human FGFR1b-IIIb extracellular domain with a HIS tag (human).
T7 construct: also called huFGFR1b-IIIb; hFGFR1b-IIIb
T7 chain: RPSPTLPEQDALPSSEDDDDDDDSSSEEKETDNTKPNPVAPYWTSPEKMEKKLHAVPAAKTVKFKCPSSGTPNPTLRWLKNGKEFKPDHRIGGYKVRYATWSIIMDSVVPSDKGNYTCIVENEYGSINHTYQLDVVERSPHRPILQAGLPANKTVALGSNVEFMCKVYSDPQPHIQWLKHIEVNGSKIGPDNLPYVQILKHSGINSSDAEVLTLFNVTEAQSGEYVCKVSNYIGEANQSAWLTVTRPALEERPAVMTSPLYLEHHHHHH
The assay can be described thus: SPR (Biacore 4000), antibody captured, His-tagged FGFR1 injected; no unit in the table, nM inferred from paragraph 90. As to the method: (§2) Binding affinities of anti-FGFR1 antibodies to FGFR1 were measured by Surface Plasmon Resonance (SPR) using a GE Healthcare BIAcore 4000 instrument as follows. Goat anti-human Fc antibody (Jackson ImmunoResearch Laboratories #109-005-098) was first immobilized on BIAcore carboxymethylated dextran CM5 chip using direct coupling to free amino groups following the procedure described by the manufacturer. Antibodies were then captured on the CM5 biosensor chip to achieve approximately 200 response units (RU). Binding measurements were performed using the running HBS-EP+ buffer. A 2-fold dilution series of His-tagged FGFR1 proteins were injected at a flow rate of 30 μl/min at 25° C. Association rates (kₒₙ, per mol/s) and dissociation rates (koff, per s) were calculated using a simple 1:1 Langmuir binding model (Biacore 4000 Evaluation Software). The equilibrium dissociation constant (KD, mol) was calculated as the ratio of koff/kₒₙ.

The next assay concerns the target T8, muFGFR1a-IIIc (mouse, UniProt P16092 22-376).
T8 construct: Bought, His6 tag; also called mouse FGFR1a-IIIc His6-tagged; murine FGFR1a-IIIc
T8 sequence (looked up): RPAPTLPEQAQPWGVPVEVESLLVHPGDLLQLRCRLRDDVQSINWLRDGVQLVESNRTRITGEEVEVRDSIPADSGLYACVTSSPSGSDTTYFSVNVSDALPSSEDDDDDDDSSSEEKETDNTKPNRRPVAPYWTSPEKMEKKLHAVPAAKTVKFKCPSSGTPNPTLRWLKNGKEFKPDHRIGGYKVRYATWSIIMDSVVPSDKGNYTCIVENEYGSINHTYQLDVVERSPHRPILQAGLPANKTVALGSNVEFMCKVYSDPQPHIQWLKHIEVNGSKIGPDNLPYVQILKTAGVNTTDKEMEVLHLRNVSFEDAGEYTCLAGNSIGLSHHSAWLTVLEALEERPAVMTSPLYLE
Described as above. On the procedure:
as §2

The next assay deals with T9, rheFGFR1a-IIIc (rhesus monkey).
T9 construct: Bought, His6 tag; also called rhesus monkey FGFR1a-IIIc His6-tagged
The description is as above. On the procedure:
as §2

The Kd is the constant that tells how readily two partners part at equilibrium. Read a low Kd as a tighter complex. As a reminder, the EC50 (read off the curve) is the concentration needed to bring the measured effect to its halfway point. A low value points to a more potent agent.

B1: mAb #A08 (antibody, V domains shown)
VH: EVQLQESGPGLVKPSGTLSLTCAVSGGSISSNNWWSWVRQPPGKGLEWIGEIYHSGSTSYNPSLKSRVTISVDKSKNQFSLKLNSVTAADTAVYYCARGTDWFDPWGQGTLVTVSS
VL: QAVLTQPPSVSVAPGQTARITCGGNNIGSESVHWYQQKPGQAPVLVVYDDSDRPSGIPERFSGSNSGNTATLTISRVEAGDEADYYCQVWDSTSDHRVFGGGTKLTVL
notes: Only variable domains are tied to the name mAb #A08 (hit); also called #A08 hit; mAb #08
Turning to B1, the Kd in assay [1] was 0.2 nM; in assay [2], 0.41 nM; in [3] it was 0.18 nM; in assay [4], 0.19 nM; in assay [5] it was 4.93 nM; in assay [6] it was 0.01 nM. The results for the Kd with muFGFR1a-IIIc and with rheFGFR1a-IIIc were 2.3 nM and 0.46 nM, respectively. For the same molecule, in the assay with Human FGFR1 D2-His6, the “EC50 (read off the curve)” value is around 0.04 nM.

Source of the values: patent US20190367620A1 (Merck KGaA, published 2019).
